Square brackets hold non-standard residues; d marks the D form. Ends that are not written are not given here. SeMet = C[Se]CC[C@H](N)C(=O)O
Legend:
[1] = target: the molecule itself; assay: crystal structure; native KCa3.1-CC crystallised without copper (apo); 0.1 M imidazole (pH 6.5), 1.0 M sodium acetate; 1.75 Å, molecular replacement, only partially refined
[2] = target: the molecule itself; assay: crystal structure; SeMet-containing KCa3.1-CC crystallised with 3 mM CuCl2; 0.1 M imidazole (pH 6.5), 1.0 M sodium acetate; space group P4212, 1.75 Å; four-helix bundle generated by the crystallographic four-fold axis

B1: native KCa3.1-CC (C-terminal coiled-coil region of human KCa3.1, residues 376-415) (domain or fragment, UniProt O15554 376-415, looked up)
chain: MILYDLQQNLSSSHRALEKQIDTLAGKLDALTELLSTALG
notes: KCa3.1 (SK4, IK1), human, C-terminal coiled-coil region, residues 376-415; Crystallised without copper (apo); also called native, apo KCa3.1-CC; source: E. coli BL21-Gold(DE3)pLysS, purified (GST-trap, thrombin cleavage, Superdex 75); not shown: GST, N-terminal, cleaved
B1: binds [1].

B2: SeMet-containing KCa3.1-CC (C-terminal coiled-coil region of human KCa3.1, residues 376-415) (domain or fragment, UniProt O15554 376-415, looked up)
chain: [SeMet]ILYDLQQNLSSSHRALEKQIDTLAGKLDALTELLSTALG
notes: KCa3.1 (SK4, IK1), human, C-terminal coiled-coil region, residues 376-415; residues 376-414 are in the atomic model; Crystallised in the presence of 3 mM CuCl2; a Cu(II) ion is coordinated by the four copies of His389; also called SeMet KCa3.1-CC; SeMet SK4-CC (w/copper); source: E. coli B834(DE3), PASM-5052 auto-induction medium, purified (GST-trap, thrombin cleavage, Superdex 75); not shown: …
B2 was tested, and the “stoichiometry N” value [2] was 4.
